Measured values published in patent US12397037B2, “Methods and compositions for immunomodulation” (CHILDREN'S MEDICAL CENTER CORPORATION, priority 2014, dated 2025).

Tested on: U87MG cells
Assay: Human Phospho-Kinase Array, U87MG cells treated with SEMA3F
Assay type: cell-based
Conditions: 30 minutes
Description: FIG. 28A depicts U87MG cells untreated (control) or following treatment with SEMA3F (640 ng/ml) for 30 minutes. Cell lysates were evaluated by phosphoprotein kinase antibody array. FIG. 28B depicts results of the array validated by Western blot analysis. FIG. 28C depicts U87MG cells treated with SEMA3F (640 ng/ml) as a time course up to 60 minutes and were analyzed by Western blot. FIGS. 28B-28C are representative of 3 independent experiments. FIG. 28D depicts U87MG, Jurkat and HUVEC cells treated with SEMA3F (200, 600, 1800 ng/ml, bars from left to right) for 15 minutes (grey bars) or 30 minutes (black bars); as a positive control, HUVEC were treated with VEGF-A (25 ng/ml) for 15 and 30 minutes. In addition, HUVEC were pre-treated with SEMA3F (1800 ng/ml) or PBS as a control for 30 minutes and subsequently VEGF-A (25 ng/ml) was added to the culture for 15 and 30 minutes. PI-3K activity was analyzed by ELISA according to the manufacturer's instructions. Data represent the mean±SD of 3 experiments.
SEMA3F inhibits Akt, mTOR, and S6K phosphorylation. To determine the effect of SEMA3F on intracellular signaling responses, levels of phosphokinases in the NRP2-expressing human glioblastoma cell line U87MG were profiled.
Phospho-kinase array: The Human Phospho-Kinase Array Kit (ARY003) was obtained from R&D Systems. U87MG cells were treated with SEMA3F which was previously found to induce cytoskeletal collapse and inhibit RhoA activity (6). […] Thus, a concentration at 640 ng/ml was optimized to analyze SEMA3F signaling pathways. Cell lysates were collected at 30 minutes after SEMA3F treatment and the levels of phosphoproteins were analyzed with this array, according to the manufacturer's instructions.

B1: SEMA3F: Human recombinant full-length His-Myc-tagged SEMA3F, secreted by transfected 293T cells and purified; class 3 semaphorin, NRP-2 ligand (protein, listed as Homo sapiens)
chain: MLVAGLLLWASLLTGAWPSFPTQDHLPATPRVRLSFKELKATGTAHFFNFLLNTTDYRILLKDEDHDRMYVGSKDYVLSLDLHDINREPLIIHWAASPQRIEECVLSGKDVNGECGNFVRLIQPWNRTHLYVCGTGAYNPMCTYVNRGRRAQATPWTQTQAVRGRGSRATDGALRPMPTAPRQDYIFYLEPERLESGKGKCPYDPKLDTASALINEELYAGVYIDFMGTDAAIFRTLGKQTAMRTDQYNSRWLNDPSFIHAELIPDSAERNDDKLYFFFRERSAEAPQSPAVYARIGRICLNDDGGHCCLVNKWSTFLKARLVCSVPGEDGIETHFDELQDVFVQQTQDVRNPVIYAVFTSSGSVFRGSAVCVYSMADIRMVFNGPFAHKEGPNYQWMPFSGKMPYPRPGTCPGGTFTPSMKSTKDYPDEVINFMRSHPLMYQAVYPLQRRPLVVRTGAPYRLTTIAVDQVDAADGRYEVLFLGTDRGTVQKVIVLPKDDQELEELMLEEVEVFKDPAPVKTMTISSKRQQLYVASAVGVTHLSLHRCQAYGAACADCCLARDPYCAWDGQACSRYTASSKRRSRRQDVRHGNPIRQCRGFNSNANKNAVESVQYGVAGSAAFLECQPRSPQATVKWLFQRDPGDRRREIRAEDRFLRTEQGLLLRALQLSDRGLYSCTATENNFKHVVTRVQLHVLGRDAVHAALFPPLSMSAPPPPGAGPPTPPYQELAQLLAQPEVGLIHQYCQGYWRHVPPSPREAPGAPRSPEPQDQKKPRNRRHHPPDT
modifications: His-Myc tag
notes: Human recombinant full-length His-Myc-tagged SEMA3F, secreted by transfected 293T cells and purified; class 3 semaphorin, NRP-2 ligand
SEMA3F 640 ng/ml, Image J
  intensity of dot/phosphoprotein AMPKa1 (T174): 0.269
  intensity of dot/phosphoprotein AMPKa2 (T172): 0.300
  intensity of dot/phosphoprotein Akt (S473): 0.396
  intensity of dot/phosphoprotein Akt (T308): 0.294
  intensity of dot/phosphoprotein CREB (S133): 0.295
  intensity of dot/phosphoprotein Chk-2 (T68): 0.297
  intensity of dot/phosphoprotein ERK1/2 (T202/Y204, T185/Y187): 0.301
  intensity of dot/phosphoprotein FAK (Y397): 0.275
  intensity of dot/phosphoprotein Fqr (Y412): 0.264
  intensity of dot/phosphoprotein Fyn (Y420): 0.276
  intensity of dot/phosphoprotein GSK-3a/b (S21/S9): 0.284
  intensity of dot/phosphoprotein HSP27 (S78/S82): 0.277
  intensity of dot/phosphoprotein Hck (Y411): 0.270
  intensity of dot/phosphoprotein JNK pan (T183/Y185, T221/Y223): 0.287
  intensity of dot/phosphoprotein Lck (Y394): 0.269
  intensity of dot/phosphoprotein Lyn (Y397): 0.269
  intensity of dot/phosphoprotein MEK1/2 (S218/S222, S222/S226): 0.277
  intensity of dot/phosphoprotein MSK1/2 (S376/S360): 0.293
  intensity of dot/phosphoprotein PLCq-1 (Y783): 0.262
  intensity of dot/phosphoprotein Paxillin (Y118): 0.264
  intensity of dot/phosphoprotein Pyk2 (Y402): 0.251
  intensity of dot/phosphoprotein RSK1/2 (S221/S227): 0.307
  intensity of dot/phosphoprotein RSK1/2/3 (S380/S386/S377): 0.320
  intensity of dot/phosphoprotein STAT1 (Y701): 0.298
  intensity of dot/phosphoprotein STAT2 (Y689): 0.305
  intensity of dot/phosphoprotein STAT3 (Y705): 0.270
  intensity of dot/phosphoprotein STAT4 (Y693): 0.285
  intensity of dot/phosphoprotein STAT5a (Y694): 0.281
  intensity of dot/phosphoprotein STAT5a/b (Y694/Y699): 0.311
  intensity of dot/phosphoprotein STAT5b (Y699): 0.270
  intensity of dot/phosphoprotein STAT6 (Y641): 0.304
  intensity of dot/phosphoprotein Src (Y419): 0.289
  intensity of dot/phosphoprotein TOR (S2448): 0.281
  intensity of dot/phosphoprotein Yes (Y426): 0.289
  intensity of dot/phosphoprotein b-Catenin: 0.323
  intensity of dot/phosphoprotein c-Jun (S63): 0.263
  intensity of dot/phosphoprotein eNOS (S1177): 0.240
  intensity of dot/phosphoprotein p27 (T157): 0.249
  intensity of dot/phosphoprotein p27 (T198): 0.242
  intensity of dot/phosphoprotein p38a (T180/Y182): 0.268
  intensity of dot/phosphoprotein p53 (S15): 0.312
  intensity of dot/phosphoprotein p53 (S46): 0.321
  intensity of dot/phosphoprotein p53 (S392): 0.312
  intensity of dot/phosphoprotein p70 S6 Kinase (T229): 0.264
  intensity of dot/phosphoprotein p70 S6 Kinase (T389): 0.241
  intensity of dot/phosphoprotein p70 S6 Kinase (T421/S424): 0.299
SEMA3F vs Control, 640 ng/ml
  Ratio AMPKa1 (T174): 92.7
  Ratio AMPKa2 (T172): 94.5
  Ratio Akt (S473): 77.4
  Ratio Akt (T308): 92.6
  Ratio CREB (S133): 91.3
  Ratio Chk-2 (T68): 93.4
  Ratio ERK1/2 (T202/Y204, T185/Y187): 91.2
  Ratio FAK (Y397): 87.7
  Ratio Fqr (Y412): 94.1
  Ratio Fyn (Y420): 93.1
  Ratio GSK-3a/b (S21/S9): 91.0
  Ratio HSP27 (S78/S82): 94.0
  Ratio Hck (Y411): 91.4
  Ratio JNK pan (T183/Y185, T221/Y223): 91.5
  Ratio Lck (Y394): 94.2
  Ratio Lyn (Y397): 93.7
  Ratio MEK1/2 (S218/S222, S222/S226): 92.8
  Ratio MSK1/2 (S376/S360): 92.4
  Ratio PLCq-1 (Y783): 95.1
  Ratio Paxillin (Y118): 95.8
  Ratio Pyk2 (Y402): 93.1
  Ratio RSK1/2 (S221/S227): 97.8
  Ratio RSK1/2/3 (S380/S386/S377): 98.8
  Ratio STAT1 (Y701): 98.2
  Ratio STAT2 (Y689): 95.3
  Ratio STAT3 (Y705): 93.4
  Ratio STAT4 (Y693): 96.4
  Ratio STAT5a (Y694): 94.8
  Ratio STAT5a/b (Y694/Y699): 90.1
  Ratio STAT5b (Y699): 92.6
  Ratio STAT6 (Y641): 96.3
  Ratio Src (Y419): 91.0
  Ratio TOR (S2448): 91.8
  Ratio Yes (Y426): 94.6
  Ratio b-Catenin: 91.6
  Ratio c-Jun (S63): 94.3
  Ratio eNOS (S1177): 93.9
  Ratio p27 (T157): 94.3
  Ratio p27 (T198): 94.0
  Ratio p38a (T180/Y182): 91.8
  Ratio p53 (S15): 96.7
  Ratio p53 (S46): 93.6
  Ratio p53 (S392): 94.0
  Ratio p70 S6 Kinase (T229): 100.0
  Ratio p70 S6 Kinase (T389): 95.6
  Ratio p70 S6 Kinase (T421/S424): 97.4
